Tested on: c1ccc(-c2ccccc2)cc1
Assay: purified protein
Conditions: apparent, air-saturated 50 mM MES pH 6.0, NADH 123 µM, BphG B356 and BphF LB400 as electron transfer partners, Fe(II) added, well coupled
Description: O2 consumption, Clark-type oxygen electrode on BPDOB356 (biphenyl dioxygenase, oxygenase component BphAE)

Row | Substance | Km | kcat [s⁻¹] | kcat/Km [M⁻¹ s⁻¹]
1 | BPDOB356 (biphenyl dioxygenase, oxygenase component BphAE) (Comamonas testosteroni; M231A) | 9.4 (1.9) µM | 2.1 | 200000
2 | BPDOB356 (biphenyl dioxygenase, oxygenase component BphAE) (Comamonas testosteroni; M231T) | 11.1 (3.1) µM | 2.9 | 300000

— PMC3536784, “Structural Characterization of Pandoraea pnomenusa B-356 Biphenyl Dioxygenase Reveals Features of Potent Polychlorinated Biphenyl-Degrading Enzymes” (PLoS ONE, 2013)
